Results published in patent US10849966B2, “Methods for treating netosis and neutrophil activation” (TRUSTEES OF BOSTON UNIVERSITY, priority 2017, dated 2020).
Read-outs that look alike come from different tables or passages of the source.

T1: DEspR on intact human cells (Homo sapiens, UniProt B0L3A2)
T1 construct: endogenous in cells; host or cells: intact human cells / 'DEspR+ human cells'
T1 sequence (B0L3A2 1-85): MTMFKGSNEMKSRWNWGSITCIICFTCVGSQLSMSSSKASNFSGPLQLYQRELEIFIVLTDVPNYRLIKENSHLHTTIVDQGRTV


Key:
[1] = test system: pancreatic peritoneal metastatic tumors; experiment: combination anti-DEspR mAb and gemcitabine in rats with pancreatic peritoneal metastatic tumors; type: in vivo; conditions: per rat
Experimental: FIG. 36 depicts representative images of tumor treated rats with combination anti-DEspR mAb and gemcitabine vs gemcitabine alone, and mock-treated saline controls. GEM tx: gemcitabine treatment (100 mg/kg/dose iv×2). Hu-6g8 or ABTM-468: humanized anti-DEspR mAb treatment 1 mg/kg/dose iv×1/week×2. Combo-tx: combination therapy. Saline mock Tx: mock.
The observations of anti-DEspR/gemcitabine synergy supports the potential of anti-DEspR mAb therapy to be a compelling partner for combination with checkpoint inhibitors. […] The paradigm of unique combinatorial synergy was further tested in vivo. […] Moreover, there was no ascites in ComboTx-rats. Gut distention from gut-dysfunction is also evident in saline mock-treated (Tx) control. (FIG. 36).
Importantly, metastasis to the liver and retroperitoneal space, and ascites were all prevented/inhibited by ComboTx.

[2] = target: T1, DEspR on intact human cells; experiment: hu6g8 binding to DEspR on intact human cells; conditions: done in triplicate
From the text: (§1) FIGS. 17A-17C depict anti-DEspR-mab (hu6g8 mab). FIG. 17A depicts a diagram of DEspR, murine precursor mabs and humanized IgG and IgG4 mabs. Hu6g8 is notated as 6g8g7-hu-IgG4 raised against epitope 2, spanning the putative binding domain.
Described herein is the development, characterization, and validation of a fully humanized anti-DEspR mAb with a S228P hinge-stabilized IgG4/kappa FC region, designated herein as hu-6g8 or […]. The hu-6g8 was designed for high binding affinity to DEspR+ human cells and inhibition of activated neutrophil survival. hu-6g8 is reactive in all species, having identical epitopes in human, primates and rodents, which facilitates preclinical and clinical studies using the therapeutic lead. […] (FIG. 6). Through recombinant DNA technology, hu-6g8 was designed with optimal biophysical properties via: a) avoidance of T-cell epitopes for low immunogenicity—‘deimmunized’, b) optimization of heavy and light chain interactions for stability of variable domains, and c) exclusion of destabilizing post-translational modification sites [deamidation, oxidation, acid-lability, inappropriate N-glycosylation, isomerization and pyroglutamate formation].
Described herein are the advantages of anti-DEspR mAb targeted AECs. DEspR, the dual endothelin1/signal peptide receptor,^9 is a validated target on human activated neutrophils and NETs. […]

[3] = test system: LPS-induced hemorrhagic encephalopathy in stroke prone rats; experiment: LPS-induced hemorrhagic encephalopathy / multi-organ failure rat model; type: in vivo
From the text: FIG. 3A) control rat brain after PBS-buffer perfusion to eliminate intravascular blood.
FIG. 4 depicts a survival curve analysis of anti-DEspR treated rats compared with non-treated rats in a rat model of LPS-induced multi-organ failure manifesting predominantly as hemorrhagic encephalopathy (phenotype corroborated in FIG. 3A-3F).
Neutrophil-mediated tissue injury has been implicated in blood brain barrier disruption or injury.
The murine precursor anti-DEspR antibody, 6g8-mumab, was studied in a rat model of LPS-induced hemorrhagic encephalopathy as a paradigm of multi-organ failure (MOF) in ARDS and sepsis (FIG. 3A-3F).
It was also determined whether anti-DEspR can increase survival of rats in a LPS-induced hemorrhagic encephalopathy MOF rat model.

[4] = test system: LPS-activated neutrophils; experiment: ex vivo survival of LPS-activated neutrophils; type: cell-based, rat; conditions: vs control non-treated activated neutrophils, P<0.0001; listed as 6g8
From the text: FIGS. 2A-2B depict DEspR expression on rat activated neutrophils and anti-DEspR inhibition of activated neutrophil survival. FIG. 2A) FACS analysis of CD11b activated neutrophils that are DEspR+(bold oval), and DEspR[−] (bold circle). Quiescent neutrophils are DEspR[−] and CD11B[−] in Quadrant Q4. FIG. 2B depicts inhibition of the extended survival of activated neutrophils by two different anti-DEspR mAbs targeting two different epitopes on DEspR.
DEspR is expressed on activated human neutrophils (FIG. 1A) and in neutrophils undergoing NETosis (FIG. 1C-D), in contrast to isotype control (FIG. 1B). Anti-DEspR mAb detects DEspR expression on rat LPS-activated neutrophils (FIG. 2A). […] Majority of CD11b activated neutrophils are DEspR+(Red bold circle) in contrast to CD11b+ but DEspR(−) (yellow circle) activated neutrophils (FIG. 2A).
Briefly, this anti-DEspR approach is supported by experimental data as outlined below: • 1. Validation of DEspR as target. DEspR is expressed on activated human neutrophils (FIG. 1A,1C,1D). Anti-DEspR immunostaining specificity is shown by no signal in isotype control neutrophils (FIG. 1B). Most human neutrophils undergoing NETosis are DEspR+ (FIG. 1C-1D). NETs (neutrophil extracellular traps) are associated with organ microthrombi in MOF and directly induce endothelial and epithelial cell death,^56 all of which are pathogenic events in ARDS. • 2. […]

activated neutrophils = experiment: dose-response survival assay of activated neutrophils (Trypan blue dye exclusion); type: cell-based; conditions: for IC50: live cells counted by Trypan blue dye exclusion, read-out: IC50, inhibition of activated neutrophil survival
From the text: FIG. 6 depicts a graph comparison of functional activity of anti-DEspR fully humanized 6g8 mAb, 6g8-humab, and prototype murine anti-DEspR 6g8 mAb, 6g8-mumab.
as §1
Described herein are the advantages of anti-DEspR mAb targeted AECs. DEspR, the dual endothelin1/signal peptide receptor,^9 is a validated target on human activated neutrophils and NETs. Hu6g8 binds human activated neutrophils (FIG. 18A) and NETs (FIG. 18B), as confirmed by Western Blot analysis of DEspR protein in human kidney (K), and activated neutrophil samples, act-Ns (FIG. 18C). Humanized anti-DEspR-mab (hu6g8 mab) is an ideal targeting moiety. Hu6g8 is the multi-species Human/NHPrimate/Rat reactive humanized-deimmunized anti-DEspR-mab with a hinge-stabilized IgG4S228P/kappa Fc region (FIG. 17A) to avoid (ADCC-antibody dependent cell-mediated cytotoxicity, CDC-complement dependent cytotoxicity), and to eliminate loss of targeting upon Fab arm exchange typical of native IgG4 isotype. […] Through recombinant DNA technology, the antibody design incorporates: a) avoidance of T-cell epitopes for low immunogenicity; b) optimization of heavy and light chain interactions for stability of variable domains; and, c) exclusion of destabilizing post-translational modification sites [e.g., deamidation, oxidation]. The targeting of DEspR^+ NETs, but sparing of DEspR(−) quiescent neutrophils via the anti-DEspR mAb is also novel. […] The use of human neutrophil-elastase cleavable linker is advantageous as this connector-peptide can be added by recombinant technology and HNE is enriched on NETs and actually a reason for the injurious properties of NETs. HNE is desirable for local therapeutic delivery [Owen C A, Campbell E J. J Leukocyte Biol 1999, 65 (2) 137-150], has specificity for small uncharged amino acids particularly alanine (A) and valine (V) [Meers P. Adv Drug Delivery Rev. 2001. 53 (3) 265-272]. […] The advantages of all three in an AEC is novel and robust as the targeted delivery and release of DNAse 1 on NETs can attain in vivo efficacy of what has been shown in vitro, the induction of macrophage uptake-and-clearance of NETs upon DNAse 1 digest of NETs DNA. In summary, targeting the intravascular NETs sites. The humanized anti-DEspR-mab with a hinge-stabilized IgG4/kappa Fc region to avoid Fab arm exchange in vivo and ensuing loss of targeting was selected. Additionally, this avoids immune effector functions of IgG1 mAbs (ADCC, CDC), which would worsen endothelial injury. […]

Molecule	Ascites volume [1]	Tumor weight (g) Greater Omentum [1]	Ascites ([1]; GEM 100 mg/kg/dose iv×2, hu-6g8 1 mg/kg/dose iv×1/week×2)	EC50 [2]	progression to hemorrhagic encephalopathy ([3]; single dose 1 mg/kg/dose iv after LPS)	murine IgG levels in brain (ELISA of brain membrane proteins) ([3]; treated rat brains, target engagement)	neutrophil myeloperoxidase (MPO) levels in the brain (ELISA) ([3]; vs non-treated LPS brains)	rat albumin levels in the brain (ELISA), brain edema ([3]; vs non-treated LPS brains)	survival of activated neutrophils ex vivo [4]	IC50 (activated neutrophils; listed as mu-6g8)	IC50 (activated neutrophils)	IC50, inhibition of activated neutrophil survival (activated neutrophils; maximum dose used in the dose-response survival assay)
Nc1ccn([C@@H]2O[C@H](CO)[C@@H](O)C2(F)F)c(=O)n1 [GEM, gemcitabine]	1.5 mls	1.6351 g	Bloody	–	–	–	–	–	–	–	–	–
6g8-mumab: murine precursor anti-DEspR antibody, pan-species reactive anti-Human/Rat/Monkey DEspR mAb (antibody, V domains shown) VH: GSEVQLQESGGGLVQPGGSLKLSCAASGFDFSRYWMSWVRQAPGKGLEWIGEINPDSSTINYTPSLKDKFIISRDTAKKTLYLQMSKVRSEDTALYYCARHGRGMDYWSQGTSVTVSSAKTTPPSVYGGGGS VL: GGGGSDIVLTQTNQIMSASVGDRVSVTCKASQNVDSNVAWYQQKPGHSPKALIYSASYRYSRVPDRITGSGSGTDFTLTITNVQSKDLADYFCQQYHSYPLLAFGAGTKLELKRADAAPTVSLE	–	–	–	178 nM	attenuated the progression to life-threatening hemorrhagic encephalopathy	greater brain levels than anti-DEspR 10a3	decreased myeloperoxidase levels	decreased albumin levels	decreased their survival	> 198 nM	> 200 nM	> 30 µg/mL
